The record followed here is paper PMC6399350, “Heterologous calcium-dependent inactivation of Orai1 by neighboring TRPV1 channels modulates cell migration and wound healing” (Communications Biology, 2019).

No end group written: not given here.

The target of assay [1] is T1, Orai1-COOH-DsRed (carboxyl terminus of Orai1 fused to the red fluorescent protein) (human).
T1 construct: also called Orai1-dsRED-COOH peptide; source: spotted on the microarray slide; not shown: DsRed, C-terminal, kept
T1 chain: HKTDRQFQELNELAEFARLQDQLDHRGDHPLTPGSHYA
Description: peptide or protein array; TIRFM microarray; Orai1-COOH-DsRed printed on poly-D-lysine coated glass as bait, ANK domains fused to GFP in solution at 1 uM, 3 min incubation, wash with saline, GFP fluorescence read. The following applies: both partners purified.

In assay [2] the target is T2, ANK1 domain printed on the microarray slide as bait (rat).
T2 construct: ankyrin domain 1 of rat TRPV1, 110-152; The methods say 'the ANK1 domain (see above)', which points to the ANK1-GFP fusion; Kept apart from m6 for that reason; source: purified peptide, printed on glass microarray slides coated with poly-D-lysine
T2 chain: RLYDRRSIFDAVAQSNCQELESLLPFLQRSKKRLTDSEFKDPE
Description: peptide or protein array; TIRFM microarray; ANK1 domain printed on poly-D-lysine coated glass as bait, Orai1 terminus fused to GFP in solution, GFP fluorescence read. The following applies: both partners purified.

B1: ANK1-GFP (first ankyrin domain of rat TRPV1 fused to GFP) (domain or fragment)
chain: RLYDRRSIFDAVAQSNCQELESLLPFLQRSKKRLTDSEFKDPE
notes: ankyrin domain 1 of rat TRPV1, 110-152; source: HEK293, transfected, in lysate (co-IP); HEK293 in suspension, sonicated, immunoprecipitated with anti-GFP antibody (microarray); not shown: enhanced GFP, C-terminal, kept
With B1, the binding result in assay [1] is listed as “binds”.

B2: ANK4-GFP (fourth ankyrin domain of rat TRPV1 fused to GFP) (domain or fragment)
chain: FGELPLSLAACTNQLAIVKFLLQNSWQPADISARDS
notes: ankyrin domain 4 of rat TRPV1, 247-282; source: HEK293 in suspension, sonicated, immunoprecipitated with anti-GFP antibody (microarray); not shown: enhanced GFP, C-terminal, kept
Regarding B2, the binding result in assay [1] is reported as “binds”.

B3: ANK2-GFP (second ankyrin domain of rat TRPV1 fused to GFP) (domain or fragment)
chain: TGKTCLLKAMLNLHNGQNDTIALLLDVARKTDSLKQFVNASYTDSYY
notes: ankyrin domain 2 of rat TRPV1, 153-199; source: HEK293, transfected, in lysate (co-IP); HEK293 in suspension, sonicated, immunoprecipitated with anti-GFP antibody (microarray); not shown: enhanced GFP, C-terminal, kept
For B3, the binding result in assay [1] is on record as “binds”.

B4: Orai1-COOH-GFP (carboxyl terminus of Orai1 fused to GFP) (domain or fragment, human)
chain: HKTDRQFQELNELAEFARLQDQLDHRGDHPLTPGSHYA
modifications: also: fused to GFP
notes: source: HEK293 in suspension, sonicated, immunoprecipitated with anti-GFP antibody (procedure as for the ANK-GFP fusions); not shown: GFP, C-terminal, kept
As to B4, the binding result in assay [2] was “binds”.

B5: ANK3-GFP (third ankyrin domain of rat TRPV1 fused to GFP) (domain or fragment)
chain: KGQTALHIAIERRNMTLVTLLVENGADVQAAANGDFFKKTKGRPGFY
notes: ankyrin domain 3 of rat TRPV1, 200-246; source: HEK293, transfected, in lysate (co-IP); HEK293 in suspension, sonicated, immunoprecipitated with anti-GFP antibody (microarray); not shown: enhanced GFP, C-terminal, kept
B5: the binding result in assay [1] is “binds”.
